Results taken from the supplement of paper PMC9170038.

Test system: MS2 coat protein
Assay: apparent KD of MS2 coat protein; designed switch direction (-1 OFF switch, 1 ON switch): -1; higher = weaker reporter binding
Procedure, shortened: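 Designed RNA switches sharing common flanks were transcribed on Illumina chips by stalled E. coli RNA polymerase. They were titrated with SNAP-549-labelled MS2 coat protein, from 0.7 or 1.5 nM doubling to 3 µM, in Tris-HCl pH 7.5 buffer with KCl, MgCl2, BSA, DTT, tRNA and Tween-20. Titrations ran without input, with 200 uM small-molecule ligand, or with an oligonucleotide input. The apparent KD of each design is the median over its clusters, after curve-fitting of normalised cluster fluorescence.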

[1] = Eterna round: R95, input ligand: FMN 200 uM
[2] = Eterna round: R95, input ligand: microRNA oligo, concentration not stated
[3] = Eterna round: R95, input ligand: none
[4] = input ligand: microRNA oligo, concentration not stated

Sequence | apparent KD of MS2 coat protein [1] | apparent KD of MS2 coat protein [2] | apparent KD of MS2 coat protein [3] | apparent KD of MS2 coat protein (input ligand: FMN 200 uM) | apparent KD of MS2 coat protein [4] | apparent KD of MS2 coat protein (input ligand: none)
AGAAAUGCCCAUGGCCACAAGCUUUUUGCUUGCCUUACCACAUGAGGAUCACCCAUGUGACAUGGGCUCCUUAUAAU [Teoredale] (puzzle: Sensor v3, turn-off variant 2) | 15.3 nM | 13.1 nM | 14 nM | – | – | –
AUGAGCAGACGGAGAUCCAACAUGAGGAUCACCCAUGUCUCAUAAGCUUUUUGUUCAUCUUAUUGUACCUUGGUGCA [Mat - Sensor v3 - turn-off var 1 - JL Mod - D25] (puzzle: Sensor v3, turn-off variant 1) | 57.2 nM | 30.5 nM | 55.5 nM | – | – | –
ACAUGAGGAUCACCCAUGUCCGGUUGGUCUGUUCCGGCUGUCGAGGAUAUAGUCCGGUGUUCGCGCUAGAAGGCGAGGGCUGGA [Aenatbe mod 47] (Eterna round: R96, puzzle: Exclusion NG 3) | – | – | – | 1180 nM | 227 nM | 397 nM
UACAUGAGGAUCACCCAUGUUUUGUCGUGUAUGGUAUUUAUCUAGGAUAUCAUUUUAUUUAGCUAUGAGAAGGAGAAUAUUAAU [JMF's solution 94] (Eterna round: R96, puzzle: Exclusion NG 3) | – | – | – | 32.3 nM | 20.5 nM | 31.2 nM
ACGAUGACAGAAAGAAGUCAAAAGACAUGAGGAUCACCCAUGUAGGAUAUGGCUACGAAAAGUAGUCAGAAGGACAUGUCAUCA [Omei Exc(NG) 3 Av3] (Eterna round: R96, puzzle: Exclusion NG 3) | – | – | – | 13.5 nM | 8.79 nM | 16.8 nM
GAAAAACAUGAGGAUCACCCAUGUAAGGAUAUGCUGAAAAAACACUGGAAACAGUGCAGCAGAAGGUACAAAAG [Mat - Exclusion 1 - Eli mod - D100] (Eterna round: R96, puzzle: Exclusion 1) | – | – | – | – | 47.6 nM | –
CCGGAACAUGAGGAUCACCCAUGUCAGGAUAUCUCAAAAUCGUCGAUAGACGAUAACAAGAGAAGGGACACCGG [Mat - Exclusion 1 - Eli Mod - D29] (Eterna round: R97, puzzle: Exclusion 1) | – | – | – | 23.4 nM | – | 20.8 nM
GCAGUGCGAGGAUAUACAUGAGGAUCACCCAUGUGAGAAUAAUAAGUGAGGAAGAAAAGUAGAAGGCGCGUUGG [Mat - Exclusion 3 - Mod of Salish D67] (puzzle: Exclusion 3) | 103 nM | 41.1 nM | 46.8 nM | – | – | –
AAGUACCGGUGAGGAUAUUUAUAAUAGAGCUUUAUGAUAUACAUGAGGAUCACCCAUGUUACUUUAAAGAAGGCAUCGGAUUAA [Mat - Exclusion NG 2 - Mod of JL - D92] (Eterna round: R96, puzzle: Exclusion NG 2) | – | – | – | 19.2 nM | 11.1 nM | 18.1 nM
UGUUGUCGCGUAGGAUAUUGUCAACAGGCAGUAGGAUAUGCGAAAGCAGAAGGACCGCCAACAGGCGAGAAGGACGGGACAACU [pwkr exNG2 2xF7 2xFMN.6] (Eterna round: R96, puzzle: Exclusion NG 2) | – | – | – | 44.3 nM | 35.6 nM | 138 nM
CAUCACUGUGUCAGGAUAUCAUUUGGACGUCUAAGUGAGAAGGGACAUGAGGAUCACCCAUGUGGAGCUGGCCA [Eternabot (L1) Solution 63] (Eterna round: R97, puzzle: Brourd's mod of Exclusion 4) | – | – | – | 73.5 nM | – | 41.8 nM
AGUUGGCGAGGAUAUACAUGAGGAUCACCCAUGUGGUCCUGCGAUGGUGUCGCCCUUUGUAGAAGGCGCGGGUA [salish99_ex3_r4_055] (Eterna round: R97, puzzle: Exclusion 3) | – | – | – | 40.7 nM | – | 38.8 nM
GAUUAUGCGAGCUUUAGGGACAUGAGGAUCACCCAUGUUCGUCUUAUUGGUCUGGGUACGCUAACAUACCUAAAUCU [JMF 5] (puzzle: Sensor v3, turn-off variant 1) | 34.3 nM | 46.7 nM | 37.2 nM | – | – | –
ACAAGCUUAUUGCUCGGGUACAUGAGGAUCACCCAUGUUUGUGAUUAUAGAGAUUGUGUUGACGUGCGCUGCAGGUU [JR_SV3TOV1_Sub078] (puzzle: Sensor v3, turn-off variant 1) | 61.1 nM | 37.9 nM | 77 nM | – | – | –
UAACUUCUAGUAAGGAUAUCGGUCCCAAGGGACAACGAGAAGGUACAUGAGGAUCACCCAUGUGAAAUAAGAAU [Mod of Zala 2 - Jieux - Brourd's Mod of Exclusion 4] (Eterna round: R97, puzzle: Brourd's mod of Exclusion 4) | – | – | – | 72.9 nM | – | 20.7 nM
AAUAACAGAGGAUAUACUGUUUUAUGUAUUUAUUAUUUUAAACAUGAGGAUCACCCAUGUAGAAGGCUGAGUAA [JMF 28] (puzzle: Exclusion 2) | – | 22.6 nM | – | – | – | –
AGAUGUAGAUGCCGAUCCUACAUGAGGAUCACCCAUGUAGCUAGACGUGCGGGCGGCGCUCGUCGGACUACCAGUAG [salish99_TOv1_r3_097] (puzzle: Sensor v3, turn-off variant 1) | 78.8 nM | 82.4 nM | 124 nM | – | – | –
UGAGUGCUGCGAGGAUAUACAUGAGGAUCACCCAUGUAAAAGUGUGAGGCUUUGCCUCACACUAUGUAGAAGGCGCAGUACUCU [JL ENG2 1.04] (Eterna round: R96, puzzle: Exclusion NG 2) | – | – | – | 17.6 nM | 10.6 nM | 13.6 nM
UGUCCAAUACAGGAUAUUCUCGCGUAGUAGCAAGGAGAAGGGUAGACAUGAGGAUCACCCAUGUGAUUCAUCUG [Eternabot (L2) Solution 68] (Eterna round: R97, puzzle: Exclusion 6) | – | – | – | 438 nM | – | 575 nM
GAUUAUGCGAGCUUUAGGGACAUGAGGAUCACCCAUGUUCGUCUUAUUGAUCUAGGUACGCUAACAUACCUAAAUCU [Mod of one of jandersonlee's solutions 3] (puzzle: Sensor v3, turn-off variant 1) | 23 nM | 36.3 nM | 23 nM | – | – | –
CCUUGUGUUGAGGAUAUGCGCCGGCUCGCUGGCGCAGAAGGCGGCACAUGAGGAUCACCCAUGUCAGUUCGCGG [salish99_ex6_r004_013] (Eterna round: R97, puzzle: Exclusion 6) | – | – | – | 426 nM | – | 116 nM
UUUACCAGAGGAUAUGCGAAUAAAUAAAACUUUUUUUUUUAACAUGAGGAUCACCCAUGUAGAAGGCUGCAUUU [Ex2 #29] (Eterna round: R97, puzzle: Exclusion 2) | – | – | – | 25.5 nM | – | 28.2 nM
AUUAUAUAGACAGGAUAUUGAUUAUUAUUUUAACAUGAGGAUCACCCAUGUAGCCUUAUGUAUAGCAAGAAGGGUCAUUUAUUA [Title] (Eterna round: R96, puzzle: Exclusion NG 2) | – | – | – | – | 122 nM | –
AUGAGGUUAGGAUAUACAUGAGGAUCACCCAUGUUGAAGGGUUAGGUAGGCGGAGCUGGUAGAAGGAACGGAGC [JR_Exclu3_Sub057] (Eterna round: R96, puzzle: Exclusion 3) | – | – | – | 44.3 nM | 31.9 nM | 55.3 nM
CUUUCUUGCAAGGAUAUGCAAUUUAUUAUUUAUGCAGAAGGUGCUACAUGAGGAUCACCCAUGUUUCUGGGUUU [JR_E6_Sub045] (puzzle: Exclusion 6) | – | 124 nM | – | – | – | –
UUGUUAUAUGAAGGAUAUACUUAACAUGAGGAUCACCCAUGUGGUGUUGUGAGUGAGUGAGUUUAGUAGAAGGUCAAGUAUUUU [JMF's solution 52] (Eterna round: R96, puzzle: Exclusion NG 2) | – | – | – | 509 nM | 368 nM | 377 nM
CUGAGCAGACGGAAAUCCAACAUGAGGAUCACCCAUGUCUCAAAAGCUUUUUGCUUGUCUUAUUCUCCUCUGUUCUC [Edtile] (puzzle: Sensor v3, turn-off variant 1) | 13.8 nM | 71.2 nM | 12.9 nM | – | – | –
CUCGGACAUGAGGAUCACCCAUGUGAGGAUAUGAUGCGAUCGUCGAAAGACGAUAGCAUCAGAAGGCACAAAUG [Fiskers Ex 1 - 25] (puzzle: Exclusion 1) | – | 73 nM | – | – | – | –
CUCUAGUCAGGAUAUUAGUUGCCGCCUGGCAACAGGCGGCAUGAGAAGGGACUUGAGGAUCACCCAAGUAAAAG [Rabebete] (Eterna round: R97, puzzle: Exclusion 4) | – | – | – | 66.1 nM | – | 368 nM
CCUAUGUGAGGAUAUCACUGGUCUUUUCAUUGGAUGAUUAGUGAGAAGGCACAUGAGGAUCACCCAUGUCGGUG [Ex4 - 3 - 52] (puzzle: Exclusion 4) | – | 34.6 nM | – | – | – | –
